In the DeepSol protein solubility set:

Assay: soluble on expression in E. coli; label from the status in PepcDB or PDB records

Row | Sequence | soluble on expression in E. coli
1 | AIAWNKKNEEKEDFGIIVILWKQVTVKEDGKVPLEPFLTAAKEVLRVVDAFGSGFRIVKNDIAGNIKKLYRANQTVHAETLQELIIAENSPDGLATVALLWLKRAFQFIASFLRRLVVTDKSLEQCVTEAYNCTLRPCHSAVIQKVFWGGVKLAPSRERFYRKLHPDLNIAKAKIEEFLIELHDPLCCIVQFFFQRELEDQCWGDEVYQRKDSSEWLKVSCEQDSV | soluble
2 | ALGDTLTITLGGSGGTAKVLRKINQDGYTSEYYLPETSSSFRAKVRHTKESVKPNQVQYERHNVEFTETVYASGSTPEFVRQAYVVIRHKVGDVSATVSDLGEALSFYLNEALYGKLIGWES | soluble
3 | ALMITDECINCDVCEPECPNGAISQGDETYVIEPSLCTECVGHYETSQCVEVCPVDAIIKDPSHEETEDELRAKYERITGEG | soluble
4 | ALPTIHVVTPTYSRPVQKAELTRMANTLLHVPNLHWLVVEDAPRRTPLTARLLRDTGLNYTHLHVETPRNYKLRGDARDPRIPRGTMQRNLALRWLRETFPRNSSQPGVVYFADDDNTYSLELFEEMRSTRRVSVWPVAFVGGLRYEAPRVNGAGKVVRWKTVFDPHRPFAIDMAGFAVNLRLILQRSQAYFKLRGVKGGYQESSLLRELVTLNDLEPKAANCTKILVWHTRTEKPVLVNEGKKGFTDPSVEI | soluble
5 | ANNRAEVDTLSPAQAAELKPMPQSWRGVLPCADCEGIETSLFLEKDGTWVMNERYLGAREEPSSFASYGTWARTADKLVLTDSKGEKSYYRAKGDALEMLDREGNPIESQFNYTLEAAQSSLPMTPMTLRGMYFYMADAATFTDCATGKRFMVANNAELERSYLAARGHSEKPVLLSVEGHFTLEGNPDTGAPTKVLAPDTAGKFYPNQDCSSLGQMASMTGGQQMGHHHHHH | soluble
6 | ANSKLTSDFDNPRWIGRHKHMFNFLDVNHNGKISLDEMVYKASDIVINNLGATPEQAKRHKDAVEAFFGGAGMKYGVETDWPAYIEGWKKLATDELEKYAKNEPTLIRIWGDALFDIVDKDQNGAITLDEWKAYTKAAGIIQSSEDCEETFRVCDIDESGQLDVDEMTRQHLGFWYTMDPACEKLYGGAVP | soluble
7 | APGVSTILDNRNNPIAWVYKQRRFEIPSEAIPQSMKDAIVSIEDRRFYEHKGVDIQGNLRAIVTNIFAGGVAQGASTIDQQYVKNFLLLVKSDNPEEQAAATETSIPRKLREMRMASTIDSTLSKDDILTRYLNLVHLGNGAFGVEAAARTYFGKGAPELSLAQSAMFAGIVQSSSY | not soluble
8 | APIKGVTFGEDTVWEVQGYKNVRITFELDERVDKVLNEKCSVYTVESGTEVTEFACVVAEAVVKTLQPVSDLLTNMGIDLDEWSVATFYLFDDAGEENFSSRMYCSFYPPDE | soluble
9 | APKNGTVQEKKFFSKELNEEMTLLVYLPSNYSPLYKYHVIIAQDGHDYFRLGRIGRQVEELLSKREIDRSIIIGVPYKDVKERRNTYHPEGSKFSAYKRFIAHELVPFADDEYPTYQIGYGRTLIGDSLGATVSLMTALDYPNMFGNIIMQSPYVDKHVLEAVKQSDDIKHLSIYHQIGTKETDVHTTDGNILDFTEPNRELKQLLEKKLSDYDFEPFDGDHKWTYWQPLITPALKKML | not soluble
10 | APSASFERRQGSVNPYIGRSPLVIKSYAEKLEETIAYFEAQGDELNAARTRTVQGIPTFAWISDSATIDTIQPLIADAVAHQEASGEQVLVQLVIYNLPDRDCAAKASDGEFHLDDDGANKYRAYVDRIVAELSTADADKLHFSIVLEPDSLGNMVTNMHVPKCQGAATAYKEGIAYTIASLQKPNIDLYIDAAHGGWLGWNDNLRPSAEIFKETLDLARQITPNATVRGLAINVSNYNPYKTRAREDYTEWNNAYDEWNYVKTLTPHLQAVGFPAQFIVDQGRSGREGIRTEWGQWCNIRNAGFGIRPTTDQAIVDSANVDAIVWVKPGGESDGTSDVNAVRFDENCRSPASHVPAPEAGEWFNEFVVNLVINANPPLEPTYAAAALEHHHHHH | soluble
